According to patent publication US20230235040A1 (ALMIRALL S A, published 2023):
Where a chain is given by its changes, count along the chain named. One block for each binder: values may come before it.

What was measured:
[1] = target: T1, hu-IL-36β (human IL-36β, N-terminally truncated active form R5-E157) (human); assay: ELISA, yeast Fab supernatant, anti-Fab-HRP
T1 construct: Purification tag cleaved off; Biotinylated where captured; also called hu-IL-36b
T1 chain: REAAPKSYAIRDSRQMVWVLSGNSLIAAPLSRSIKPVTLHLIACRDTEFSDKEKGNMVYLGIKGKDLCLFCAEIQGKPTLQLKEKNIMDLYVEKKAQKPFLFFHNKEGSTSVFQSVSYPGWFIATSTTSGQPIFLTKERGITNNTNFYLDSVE

[2] = target: T1, hu-IL-36β (human IL-36β, N-terminally …); assay: cell-based or functional assay
[3] = target: T2, cy-IL-36β (cynomolgus monkey IL-36β, W5-E157) (cynomolgus monkey); assay: ELISA on coated cy- and hu-IL-36β, yeast Fab supernatant; ratio of OD450
T2 construct: Purification tag cleaved off
T2 chain: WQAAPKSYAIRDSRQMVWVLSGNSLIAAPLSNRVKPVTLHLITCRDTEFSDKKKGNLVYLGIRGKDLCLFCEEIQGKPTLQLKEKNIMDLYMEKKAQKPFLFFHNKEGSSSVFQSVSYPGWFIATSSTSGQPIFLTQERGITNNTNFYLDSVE
Method: Cell supernatants from yeast clones of interest were tested for binding to human IL-36 by ELISA as described above. To compare the binding of these supernatants to human and cynomolgus monkey IL-36, IL-36 proteins were coated at 2.5 μg/mL on 96-well Nunc MaxiSorp plates (Thermo Fisher) and the plates blocked with 5% goat serum in PBS. Yeast supernatants were diluted 1:1 with PBST containing 1% w/v BSA and added to the ELISA plates for 1-1.5 hours with agitation. Bound Fab was detected by incubating the plates with F(ab′)2-HRP (Jackson ImmunoResearch). The ELISAs were developed for 3-10 minutes by addition of 50 μL/well of tetramethylbenzidine (TMB) microwell peroxidase substrate (Scytek Laboratories, Inc., Logan, Utah, USA) and enzymatic color development was stopped by acidification with 50 µL/well of 2 N H₂SO₄ (Sigma-Aldrich Corporation, St. Louis, Mo., USA). The optical density of the samples at a wavelength of 450 nm (OD450) was analyzed with a SpectraMax i3X plate reader (Molecular Devices LLC, San Jose, Calif., USA). To estimate the relative affinity of each clone for cynomolgus monkey IL-36 and human IL-36 in this assay, a ratio of OD450 (OD450_cyIL-36/OD450_huIL-36) was calculated for each clone and IL-36 cytokine.

[4] = target: T1, hu-IL-36β (human IL-36β, N-terminally …); assay: SPR (Biacore 8K), IgG captured on protein A chip, hu-IL-36β injected, 37°C
Method: (§1) FC1 was kept as a reference. Next, 3-fold serial dilutions of hu-IL-36β in HBS-P buffer from low (0.046 nM of hu-IL-36β) to high (100 nM of hu-IL-36β) were injected (flow rate: 30 μL/min) at either 37° C. The sensorgram was recorded and subject to reference and buffer subtraction before data analysis with the BIACORE® 8K Evaluation Software (GE Healthcare, Chicago, Ill., USA; version 1.1.1.7442). Association rates (kₒₙ) and dissociation rates (koff) were calculated using a simple one-to-one Langmuir binding model. The equilibrium dissociation constant (KD) was calculated as the ratio of koff/kₒₙ.

[5] = target: T1, hu-IL-36β (human IL-36β, N-terminally …); assay: cell-based or functional assay
[6] = target: T1, hu-IL-36β (human IL-36β, N-terminally …); assay: cell-based or functional assay
[7] = target: T2, cy-IL-36β (cynomolgus monkey IL-36β, …); assay: cell-based or functional assay
[8] = target: T1, hu-IL-36β (human IL-36β, N-terminally …); assay: SPR (Biacore 8K), IgG captured on protein A chip, 37°C
Method: as §1

[9] = target: T3, hu-IL-36γ (human IL-36γ, N-terminally truncated active form S18-D169) (human, UniProt Q9NZH8 18-169); assay: SPR (Biacore 8K), biotinylated IL-36 captured on CAP chip, Fab injected, 25°C
T3 construct: Purification tag cleaved off; Biotinylated where captured; also called hu-IL-36g
T3 sequence: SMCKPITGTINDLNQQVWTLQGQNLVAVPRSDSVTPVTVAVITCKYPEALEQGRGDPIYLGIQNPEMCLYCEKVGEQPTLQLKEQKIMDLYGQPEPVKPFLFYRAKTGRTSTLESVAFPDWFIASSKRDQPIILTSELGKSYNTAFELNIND
Method: (§2) Briefly, a 1:4 dilution of Biotin CAPture Reagent (GE Healthcare, Chicago, Ill., USA)) into HBS-EP buffer (GE Healthcare, Chicago, Ill., USA; 0.01 M HEPES pH 7.4, 0.15 M NaCl, 3 mM EDTA, 0.005% Surfactant P20) was applied to a CAP sensor chip at 2 μL/min flow rate. […] FC1 was kept as a reference. […] The sensorgram was recorded and subject to reference and buffer subtraction before data analysis with the BIACORE® 8K Evaluation Software (GE Healthcare, Chicago, Ill., USA; version 1.1.1.7442). Association rates (kₒₙ) and dissociation rates (koff) were calculated using a simple one-to-one Langmuir binding model. The equilibrium dissociation constant (KD) was calculated as the ratio of koff/kₒₙ.

[10] = target: T4, hu-IL-36α (human IL-36α, N-terminally truncated active form K6-F158) (human, UniProt Q9UHA7 6-158); assay: as above
T4 construct: Purification tag cleaved off; Biotinylated where captured (SPR, some ELISAs); also called hu-IL-36a
T4 sequence: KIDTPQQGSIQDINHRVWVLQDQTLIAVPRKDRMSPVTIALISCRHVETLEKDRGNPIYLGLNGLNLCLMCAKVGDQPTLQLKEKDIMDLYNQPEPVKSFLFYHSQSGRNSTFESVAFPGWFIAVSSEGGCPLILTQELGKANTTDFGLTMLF
Method: as §2

[11] = target: T3, hu-IL-36γ (human IL-36γ, N-terminally …); assay: SPR (Biacore 8K), biotinylated IL-36 captured on CAP chip, Fab injected, 37°C
Method: as §2

[12] = target: T4, hu-IL-36α (human IL-36α, N-terminally …); assay: as above
Method: as §2

[13] = target: T3, hu-IL-36γ (human IL-36γ, N-terminally …); assay: cell-based or functional assay
[14] = target: T4, hu-IL-36α (human IL-36α, N-terminally …); assay: cell-based or functional assay
[15] = target: T5, cy-IL-36γ (cynomolgus monkey IL-36γ, S18-K168) (cynomolgus monkey, UniProt Q9NZH8 18-167 (human entry)); assay: cell-based or functional assay
T5 chain: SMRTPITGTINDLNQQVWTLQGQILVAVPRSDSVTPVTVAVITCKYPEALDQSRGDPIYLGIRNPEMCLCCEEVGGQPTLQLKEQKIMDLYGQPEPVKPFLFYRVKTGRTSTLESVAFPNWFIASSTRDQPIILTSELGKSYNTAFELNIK

[16] = target: T3, hu-IL-36γ (human IL-36γ, N-terminally …); assay: cell-based or functional assay; remark: listed apart in the source
[17] = target: T4, hu-IL-36α (human IL-36α, N-terminally …); assay: cell-based or functional assay; remark: listed apart in the source
[18] = target: T6, cy-IL-36α (cynomolgus monkey IL-36α, K6-F158) (cynomolgus monkey, UniProt Q9UHA7 14-158 (human entry)); assay: cell-based or functional assay
T6 chain: T4 sequence with I2S, D3E, T4M, Q7P, G8V, T24I, M34V, A40S, V74A

ELISA OD450 [1]: 2.34 OD450
% Inhibition, HEK-Blue IL-36R SEAP reporter assay [2]: 86%
ELISA OD450cyIL-36/OD450hu-IL-36 [3]: 4 ratio
B1: mAb6.0 Fab (yeast clone culture supernatant) (Fab, V domains shown)
VH: QLQLQESGPGLVKPSETLSLTCTVSGGSITSSNYYWGWIRQPPGKGLEWIGSIDYTGSTYYNPSLKSRVTISVDTSKNQFSLKLSSVTAADTAVYYCARGKYYETYLGFDVWGQGTLVTVSS
VL: QSVLTQPPSVSGAPGQRVTISCTGSSSNIGAGYDVHWYQQLPGTAPKLLIYGNTNRPSGVPDRFSGSKSGTSASLAITGLQAEDEADYYCQSYDISLSGWVFGGGTKLTVL
notes: Human Fab secreted by the yeast clone, not purified

Kd [4]: 0.42 nM
koff [4]: 0.000115 s⁻¹
kon [4]: 362000 M⁻¹ s⁻¹
IC50, HEK-Blue IL-36R SEAP reporter assay [5]: 0.64 nM
IC50, IL-36-stimulated IL-8 secretion by HaCat cells [6]: 0.082 nM
IC50, IL-36-stimulated IL-8 secretion by primary human keratinocytes (HEKn) [6]: 1.75 nM
IC50, hu-IL-36β-stimulated IL-8 secretion by HaCat cells [6]: 0.8 nM
blocking potency relative to IL-36Ra, HaCat IL-8 assay [6]: 1000 fold
IC50, HEK-Blue assay with human IL1RL2 [7]: 1.96 nM
B2: mAb6.0 recombinant human IgG1 (antibody, V domains shown)
VH: B1 VH
VL: QESVLTQPPSVSGAPGQRVTISCTGSSSNIGAGYDVHWYQQLPGTAPKLLIYGNTNRPSGVPDRFSGSKSGTSASLAITGLQAEDEADYYCQSYDISLSGWVFGGGTKLTVLG
notes: Human IgG1; also called mAb6.0 IgG

fold lower affinity than mAb6.0 [8]: 16 fold
Kd [4]: 6.7 nM
koff [4]: 0.00214 s⁻¹
kon [4]: 320000 M⁻¹ s⁻¹
IC50, hu-IL-36β-stimulated IL-8 secretion by HaCat cells [6]: 12.7 nM
fold decrease in potency relative to mAb6.0 IgG, HaCat IL-8 assay [6]: 16 fold
B3: mAb6.0_2.0 IgG (mAb6.0 HC/mAb2.0 LC chimera) (antibody, V domains shown)
VH: B1 VH
VL: QSVLTQPPSVSGAPGQRVTISCTGSSSNIGAHYDVHWYQQLPGTAPKLLIYGNDNRPSGVPDRFSGSKSGTSASLAITGLQAEDEADYYCQSYDYSLSGYVFGGGTKLTVLG

Kd [9]: 0.98 nM
koff [9]: 0.000358 s⁻¹
kon [9]: 366000 M⁻¹ s⁻¹
Kd [10]: 1.2 nM
koff [10]: 0.000413 s⁻¹
kon [10]: 345000 M⁻¹ s⁻¹
Kd [11]: 1.61 nM
koff [11]: 0.00108 s⁻¹
kon [11]: 671000 M⁻¹ s⁻¹
Kd [12]: 0.3 nM
koff [12]: 0.000502 s⁻¹
kon [12]: 1.69e+06 M⁻¹ s⁻¹
B4: mAb2.0 Fab (purified, lysyl-C cleaved from recombinant IgG1) (Fab, V domains shown)
VH: QLQLQESGPGLVKPSETLSLTCTVSGGSISTSSYYWGWIRQPPGKGLEWIGSIYYTGNTYYNPSLKSRVTISVDTSKNQFSLKLSSVTAADTAVYYCARVRYGVGVPRYFDPWGQGTLVTVSS
VL: B1 VL with G32H, T54D, I95Y, W100Y
notes: also called purified mAb2.0 Fab

ELISA OD450 [1]: 2.58 OD450
% Inhibition, HEK-Blue IL-36R SEAP reporter assay [2]: 84%
ELISA OD450cyIL-36/OD450hu-IL-36 [3]: 3.9 ratio
B5: mAb7.0 Fab (yeast clone culture supernatant) (Fab, V domains shown)
VH: QVQLVESGGGVVQPGRSLRLSCAASGFTFSSYGMHWVRQAPGKGLEWVAVISYGGSERYYADSVKGRFTISRDNSKNTLYLQMNSLRAEDTAVYYCAREPWYSSRGWTGYGFDVWGQGTLVTVSS
VL: EIVLTQSPGTLSLSPGERATLSCRASQSVSSNYLAWYQQKPGQAPKLLIYSASSLQSGVPSRFSGSGSGTDFTLTISSLQPEDFATYYCQQTYSYPPTFGQGTKVEIK
notes: as for B1

IC50, HEK-Blue IL-36R SEAP reporter assay [13]: 7.5 nM
IC50, HEK-Blue IL-36R SEAP reporter assay [14]: 5.7 nM
IC50, HEK-Blue assay with human IL1RL2 [15]: 1.71 nM
IC50, IL-36-stimulated IL-8 secretion by HaCat cells [16]: 1.23 nM
IC50, IL-36-stimulated IL-8 secretion by primary human keratinocytes (HEKn) [16]: 2.27 nM
blocking potency relative to the natural antagonist IL-36Ra, HaCat IL-8 assay [16]: 12 fold
IC50, IL-36-stimulated IL-8 secretion by HaCat cells [17]: 0.28 nM
IC50, IL-36-stimulated IL-8 secretion by primary human keratinocytes (HEKn) [17]: 0.33 nM
blocking potency relative to the natural antagonist IL-36Ra, HaCat IL-8 assay [17]: 100 fold
IC50, HEK-Blue assay with human IL1RL2 [18]: 0.56 nM
B6: mAb2.0 recombinant human IgG1 (antibody, V domains shown)
VH: B4 VH
VL: B3 VL
